B1: Proto-oncogene vav (Homo sapiens), P15498 (parent)
chain: MELWRQCTHWLIQCRVLPPSHRVTWDGAQVCELAQALRDGVLLCQLLNNLLPHAINLREVNLRPQMSQFLCLKNIRTFLSTCCEKFGLKRSELFEAFDLFDVQDFGKVIYTLSALSWTPIAQNRGIMPFPTEEESVGDEDIYSGLSDQIDDTVEEDEDLYDCVENEEAEGDEIYEDLMRSEPVSMPPKMTEYDKRCCCLREIQQTEEKYTDTLGSIQQHFLKPLQRFLKPQDIEIIFINIEDLLRVHTHFLKEMKEALGTPGAANLYQVFIKYKERFLVYGRYCSQVESASKHLDRVAAAREDVQMKLEECSQRANNGRFTLRDLLMVPMQRVLKYHLLLQELVKHTQEAMEKENLRLALDAMRDLAQCVNEVKRDNETLRQITNFQLSIENLDQSLAHYGRPKIDGELKITSVERRSKMDRYAFLLDKALLICKRRGDSYDLKDFVNLHSFQVRDDSSGDRDNKKWSHMFLLIEDQGAQGYELFFKTRELKKKWMEQFEMAISNIYPENATANGHDFQMFSFEETTSCKACQMLLRGTFYQGYRCHRCRASAHKECLGRVPPCGRHGQDFPGTMKKDKLHRRAQDKKRNELGLPKMEVFQEYYGLPPPPGAIGPFLRLNPGDIVELTKAEAEQNWWEGRNTSTNEIGWFPCNRVKPYVHGPPQDLSVHLWYAGPMERAGAESILANRSDGTFLVRQRVKDAAEFAISIKYNVEVKHIKIMTAEGLYRITEKKAFRGLTELVEFYQQNSLKDCFKSLDTTLQFPFKEPEKRTISRPAVGSTKYFGTAKARYDFCARDRSELSLKEGDIIKILNKKGQQGWWRGEIYGRVGWFPANYVEEDYSEYC
partner: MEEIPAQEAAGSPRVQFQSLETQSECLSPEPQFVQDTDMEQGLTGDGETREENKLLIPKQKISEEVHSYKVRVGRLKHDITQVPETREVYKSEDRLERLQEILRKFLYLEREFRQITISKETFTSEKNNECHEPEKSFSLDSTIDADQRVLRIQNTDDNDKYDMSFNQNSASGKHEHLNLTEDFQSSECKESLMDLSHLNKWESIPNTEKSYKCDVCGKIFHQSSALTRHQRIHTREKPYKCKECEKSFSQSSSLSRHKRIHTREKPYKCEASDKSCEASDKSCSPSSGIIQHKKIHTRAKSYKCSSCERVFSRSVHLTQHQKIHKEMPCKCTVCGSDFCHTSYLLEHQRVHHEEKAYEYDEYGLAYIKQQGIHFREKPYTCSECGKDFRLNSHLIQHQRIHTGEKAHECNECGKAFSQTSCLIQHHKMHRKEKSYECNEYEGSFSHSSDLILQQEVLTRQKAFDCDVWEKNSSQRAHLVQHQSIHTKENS

Variants of: B1
Conditions: with zn655_human ZNF655, Q8N720

Variant | effect of a mutation on the interaction
Y836F | decreasing interaction
P833L | decreasing interaction
